Results taken from paper PMC6220267, “High‐affinity interactions and signal transduction between Aβ oligomers and TREM2” (EMBO Molecular Medicine, 2018).
Values belong to the binder of their own block, whether it stands above or below them.

Legend:
[1] = molecular target: T1, Aβ42 fibrils (fibrillar Aβ42) (UniProt P05067 672-713); assay: pull-down; Aβ42 fibril pull-down: conditioned media with 5 mM EDTA incubated with Aβ42 fibrils 1 h at room temperature, fibrils pelleted at 18,000 g, washed with PBS; Western blot with V5 antibody; details: one partner purified
T1 construct: amyloid‐β 1-42 (Aβ42), cut product of the amyloid precursor protein APP; Fibrillar assembly of the peptide; also called fAβ; Aβ fibrils; source: Pinotsi et al, 2016

Aβ42 oligomers (soluble) = molecular target: T2, Aβ42 oligomers (soluble) (UniProt P05067 672-713); assay: BLI; optimized assay: Protein A sensors loaded to near-saturation with soluble TREM‐Fc‐V5 proteins in PBS; ligand in serial dilution (five concentrations); dissociation in PBS; 1:1 interaction model; details: both partners purified
T2 construct: amyloid‐β 1-42 (Aβ42), cut product of the amyloid precursor protein APP; Oligomeric assembly; also called Aβ oligomers; oligomeric Aβ; source: oligomers prepared as described (Stine et al, 2003)

Aβ42 monomers = molecular target: T3, Aβ42 monomers (UniProt P05067 672-713); assay: ELISA; plates coated overnight at 4°C with purified soluble TREM‐Fc proteins in 100 mM NaCO3 pH 11, blocked (Block Ace), incubated with Aβ42 monomers, oligomers or fibrils 1 h at room temperature; Aβ detected with 4G8‐HRP, OD450; details: both partners purified
T3 construct: amyloid‐β 1-42 (Aβ42), cut product of the amyloid precursor protein APP; also called monomeric Aβ; source: monomers prepared as described (Stine et al, 2003)

- binding result [1]: binds
- binding result (Aβ42 oligomers (soluble)): binds
- binding result (Aβ42 monomers): binds
B1: soluble mouse Trem2‐Fc (soluble ectodomain) (Fc fusion, UniProt Q99NH8 19-171, looked up)
chain: LNTTVLQGMAGQSLRVSCTYDALKHWGRRKAWCRQLGEEGPCQRVVSTHGVWLLAFLKKRNGSTVIADDTLAGTVTITLKNLQAGDAGLYQCQSLRGREAEVLQKVLVEVLEDPLDDQDAGDLWVPEESSSFEGAQVEHSTSRNQETSFPPTS
notes: Trem2, mouse, soluble ectodomain; also called sTrem2‐Fc; sTrem2‐FC; source: HEK293T, transiently transfected; conditioned media; purified from conditioned media (anti-human IgG Fc agarose beads)

- binding result (Aβ42 oligomers (soluble)): binds
B2: soluble TREML1‐Fc (human, soluble ectodomain) (Fc fusion, UniProt Q86YW5 16-162, looked up)
chain: QGIVGSLPEVLQAPVGSSILVQCHYRLQDVKAQKVWCRFLPEGCQPLVSSAVDRRAPAGRRTFLTDLGGGLLQVEMVTLQEEDAGEYGCMVDGARGPQILHRVSLNILPPEEEEETHKIGSLAENAFSDPAGSANPLEPSQDEKSIP
notes: TREML1, human, soluble ectodomain; also called sTREML1‐Fc; source: HEK293T, transiently transfected; conditioned media; purified from conditioned media (anti-human IgG Fc agarose beads)

- binding result (Aβ42 oligomers (soluble)): binds
B3: soluble mouse Treml1‐Fc (soluble ectodomain) (Fc fusion, UniProt Q8K558 21-175, looked up)
chain: DSHPEVLQAPVGSSILVQCHYRLQDVRALKVWCQFLQEGCHPLVTSAVDRRAPGNGRIFLTDLGGGLLQVEMVTLQEEDTGEYGCVVEGAAGPQTLHRVSLLVLPPVPGPREGEEAEDEKETYRIGTGSLLEDPSLDPSASAGPHEFRRRENSIP
notes: Treml1, mouse, soluble ectodomain; also called sTreml1‐Fc; source: HEK293T, transfected, purified from conditioned media (anti-human IgG Fc agarose beads)
